Results: US5891679A, “TNF-alpha muteins and a process for preparing them” (priority 1993, dated 1999)
“Also recorded” adds a separate entry of the source. Bridges are numbered along the chain shown (N, C = ends). The star is where a group is joined. Biotin = O=C1N[C@H]2[C@H](CS[C@H]2CCCCC(=O)*)N1

Columns and labels:
[1] = tested on: Trypanosoma brucei brucei; assay: In vitro trypanocidal assay, T. brucei brucei; assay type: cell-based; settings: for effect on trypanocidal activity of TNF-α / tip peptide: preincubation or cotreatment with the substance; for % inhibition of trypanocidal activity: lectin 10 μg/ml; for Δ: % inhibition of trypanocidal activity by the addition of the p55 hTNFα receptor protein: p55 5 μg/ml
Experimental: The Trypanosoma brucei brucei AnTat 1.1 (EATRO 1125) pleomorphic bloodstream form was kindly provided to us by Dr. N. Van Meirvenne of the Institute for Tropical Medecine, Antwerp, Belgium, and the Trypanosoma brucei rhodesiense Trp 11 pleomorphic bloodstream form was kindly provided to us by Dr. E. Bajyana Songa (Dept. Molecular Biology, Free University of Brussels, Belgium)
After 5 h of incubation, the number of live (=moving) parasites was assessed (counting chamber) and compared the control wells in which only incubation medium was added to the trypanosomes. […] All treatments were done in quadruplicate and all reported in vitro trypanolysis experiments were repeated at least 3 times.

L929 cells = assay: L929 cell killing (cytotoxic/cytolytic/tumoricidal) assay; assay type: cell-based, mouse; settings: for effect on mTNF-α tumoricidal (cytolytic) activity: preincubation of mTNF-α with the substance; for Δ: % inhibition of tumoricidal activity by the addition of the p55 hTNFα receptor protein: p55 5 μg/ml
Experimental: L929 fibrosarcoma cells were obtained from the Rega Institute, Leuven, Belgium.
After 18 h of culture at 37° C., viability of the cell cultures was assessed by dye uptake analysis. […] The plates were read spectrophotometrically at 577 nm with a Titertek multiscan MCC340 ELISA Reader (Flow Laboratories, McLean, Va.).

[2] = tested on: human interleukin-6 (IL6); assay: IL6 production by hMVECb cells; assay type: cell-based; settings: for IL6 concentration: 24 hours
Experimental: Subsequently, the IL6 concentration in the supernatant of the cells was assessed using a commercially available hIL6 ELISA kit (Medgenix, Belgium).

[3] = tested on: human interleukin 8 (IL8); assay: IL8 production by hMVECb cells; assay type: cell-based; settings: for IL8 induction compared with wild type: human endothelial brain cells
[4] = In vivo half life of wild type and tip-deleted TNF-α (serum concentration)
Experimental: An ELISA assay to measure the protein concentration of the wild type and tip-deleted or tip-mutated mouse TNF-α protein was developed. […] Subsequently, the plates were washed once with washing buffer (PBS, 0.05% Tween-20) and the remaining binding sites were blocked for at least one hour at 37° C. with 300 μl per well of PBS buffer supplemented with 1% BSA and 0.1% NaN3. Dilutions of sample or standard mTNF-α (0.01 to 10 ng/ml mTNF-α), made in 100 μl of PBS supplemented with 1% BSA, 1% rabbit serum, and 0.1% mertiolate are then added to each well and incubated for 2 hours at 37° C. […] Subsequently, the plates are washed four times with washing buffer wherafter 100 μl of straptavidin-horseradish peroxidase (Jackson Immunoresearch Labs), which has been diluted in sample diluent to a concentration of 100 ng/ml is added and incubated for 30 minutes at 37° C. […] The reaction is stopped by adding 100 μl per well of 2N H2SO4 wherafter the optical density is read at dual wavelength (450/595 nm).
Female 8 weeks old C57bL/6 mice (6 mice/group--Charles Rivers Deutshland) were injected intraperitoneally with 1 μg/mouse of either wild type mouse TNF-α or tip deleted TNF-α. Subsequently, the mice were bled 0.5, 5, 10, 15, 30, 60, 120, 180, or 240 minutes post-injection.

[5] = tested on: 3LL-R Lewis lung carcinoma cells; assay: Experimental metastasis inducing capacity on TNF resistant 3LL-R Lewis lung carcinoma cells; assay type: in vivo, mouse (C57bl/6); settings: for metastasis enhancing potential compared with wild type TNF: 3LL-R
Experimental: At this time, all mice were killed and the lung weight as well as the amount of cancer cell nodules in the lung was assessed.

[6] = 333 pg/ml, experiment 1, 24 hours
[7] = 333 pg/ml, experiment 2, 24 hours
[8] = 1000 pg/ml, experiment 1, 24 hours
[9] = 1000 pg/ml, experiment 2, 24 hours
[10] = 1666 pg/ml, experiment 1, 24 hours
[11] = 1666 pg/ml, experiment 2, 24 hours

Molecule: Bio-GG-C-TAEGAE-C (Biotin-GGCTAEGAEC-NH2; cysteine pairing not given here) [mutpep 2]
- trypanocidal activity ([1]; T. brucei brucei): fully or even more active

Molecule: Bio-GG-C-TPEGAA-C (Biotin-GGCTPEGAAC-NH2; cysteine pairing not given here) [mutpep 5]
- trypanocidal activity ([1]; T. brucei brucei): lost their trypanocidal activity

Molecule: [Cl-].[Li+] [LiCl, reference compound]
- potentiation of trypanocidal effect of TNF-α ([1]; 1 μg/ml of LiCl co-treatment): 100 fold
- mortality of trypanosomes ([1]; T. brucei brucei, 5 h, data not shown): by itself had no effect on the survival of the trypanosomes
- effect on trypanocidal activity of TNF-α / tip peptide [1]: synergistically potentiates the trypanocidal effect of mTNF-α

Molecule: Bio-GG-C-TPAGAE-C (Biotin-GGCTPAGAEC-NH2; cysteine pairing not given here) [mutpep 3]
- trypanocidal activity ([1]; T. brucei brucei): lost their trypanocidal activity

Molecule: Bio-GG-CGQRETPEGAEAKPWYC [hTNFα-tip]
- trypanocidal activity ([1]; T. brucei brucei): shows similar results

Molecule: Bio-GG-EGAELKPWY [subpep 2]
- trypanocidal activity ([1]; T. brucei brucei): strongly reduced trypanocidal activity

Molecule: Bio-GG-C-TPEAAE-C (Biotin-GGCTPEAAEC-NH2; cysteine pairing not given here) [mutpep 4]
- trypanocidal activity ([1]; T. brucei brucei): fully or even more active

Molecule: Bio-GG-C - - - - APEGAE - - - - - C (Biotin-GGCAPEGAEC-NH2; cysteine pairing not given here) [mutpep 1]
- trypanocidal activity ([1]; T. brucei brucei): lost their trypanocidal activity

Molecule: Bio-GG-C-TPEGAE-C (Biotin-GGCTPEGAEC-NH2; cysteine pairing not given here) [subpep 1]
- trypanocidal activity ([1]; T. brucei brucei): full trypanocidal activity

Molecule: GNA: lectin Galanthus nivalis agglutinin [reference compound]
- effect on mTNF-α tumoricidal (cytolytic) activity (L929 cells; L929 cells): none of these lectins had any effect
- % inhibition of trypanocidal activity ([1]; mTNF-α 1.000 pg/ml): 5 ± 3%
- % inhibition of trypanocidal activity ([1]; mTNF-α 10.000 pg/ml): 5 ± 2%
- % inhibition of trypanocidal activity ([1]; mTNF-α 100 pg/ml): 0 ± 1%
- % inhibition of trypanocidal activity ([1]; mTNF-α 100.000 pg/ml): 3 ± 2%
- % inhibition of trypanocidal activity ([1]; mTNF-α 1.000.000 pg/ml): 2 ± 1%
- effect on trypanocidal activity of TNF-α / tip peptide [1]: did not have any effect

Molecule: Bio-GG-CGPKDTPEGAELKPWYC (Biotin-GGCGPKDTPEGAELKPWYC-NH2; disulfide 3-19 (inferred)) [mTNFα-tip]
- tumoricidal activity of tip peptide (L929 cells; L929 cells, similar dose response curve, data not shown): exerts no tumoricidal activity
- trypanocidal activity ([1]; T. brucei brucei): shows a trypanocidal activity
- trypanocidal specific activity ([1]; in vitro trypanocidal assay, average specificity): 4×10^2 -4×10^3 U/mg of peptide

Molecule: CC(=O)N[C@H]1[C@H](O[C@H]2[C@H](O)[C@@H](NC(C)=O)C(O)O[C@@H]2CO)O[C@H](CO)[C@@H](O)[C@@H]1O (stereo partly shown) [N,N'-diacetylchitobiose, reference compound]
- effect on mTNF-α tumoricidal (cytolytic) activity (L929 cells; L929 cells): not the cytolytic activity; also recorded: not affected
- effect on trypanocidal activity of TNF-α / tip peptide [1]: potently inhibits the trypanocidal activity; also recorded: potent inhibition of the mTNF-α trypanocidal effect; also recorded: trypanocidal activity of the peptide can also be inhibited

B1: P106A mTNF-α: Pro106 of mTNF-α is changed to an Ala residue (protein)
chain: LRSSSQNSSDKPVAHVVANHQVEEQLEWLSQRANALLANGMDLKDNQLVVPADGLYLVYSQVLFKGQGCPDYVLLTHTVSRFAISYQEKVNLLSAVKSPCPKDTAEGAELKPWYEPIYLGGVFQLEKGDQLSAEVNLPKYLDFAESGQVYFGVIAL
- IL6 concentration ([2]; 333 pg/ml, experiment 1): 720 pg/mL
- IL6 concentration ([2]; 333 pg/ml, experiment 2): 1300 pg/mL
- IL6 concentration ([2]; 1000 pg/ml, experiment 1): 560 pg/mL
- IL6 concentration ([2]; 1000 pg/ml, experiment 2): 750 pg/mL
- IL6 concentration ([2]; 1666 pg/ml, experiment 1): 800 pg/mL
- IL6 concentration ([2]; 1666 pg/ml, experiment 2): 1300 pg/mL
- IL8 concentration [3, 6]: 300 pg/mL
- IL8 concentration [3, 7]: 400 pg/mL
- IL8 concentration [3, 8]: 1100 pg/mL
- IL8 concentration [3, 9]: 1500 pg/mL
- IL8 concentration [3, 10]: 250 pg/mL
- IL8 concentration [3, 11]: 900 pg/mL
- fold less IL8 induced than wild type TNF-α ([3]; hMVECb, 24 hours): about 3 fold
- IL8 induction compared with wild type [3]: induce consistently less human interleukin 8 (IL8)

B2: soluble p55 hTNF-α receptor: soluble p55 hTNF-α receptor protein (protein)
chain: DSVCPQGKYIHPQNNSICCTKCHKGTYLYNDCPGPGQDTDCRECESGSFTASENHLRHCLSCSKCRKEMGQVEISSCTVDRDTVCGCRKNQYRHYWSENLFQCFNCSLCLNGTVHLSCQEKQNTVCTCHAGFFLRENECVSCSNCKKSLECTKLCLPQIEN
- Δ: % inhibition of tumoricidal activity by the addition of the p55 hTNFα receptor protein (L929 cells; mTNF-α 100 pg/ml): 100 ± 5%
- Δ: % inhibition of tumoricidal activity by the addition of the p55 hTNFα receptor protein (L929 cells; mTNF-α 1000 pg/ml): 100 ± 4%
- Δ: % inhibition of tumoricidal activity by the addition of the p55 hTNFα receptor protein (L929 cells; mTNF-α 10000 pg/ml): 5 ± 2%
- effect on mTNF-α tumoricidal (cytolytic) activity (L929 cells; L929 cells): potently inhibits the mTNF-α tumoricidal activity
- Δ: % inhibition of trypanocidal activity by the addition of the p55 hTNFα receptor protein ([1]; mTNF-α 100 pg/ml): 15 ± 5%
- Δ: % inhibition of trypanocidal activity by the addition of the p55 hTNFα receptor protein ([1]; mTNF-α 1000 pg/ml): 10 ± 4%
- Δ: % inhibition of trypanocidal activity by the addition of the p55 hTNFα receptor protein ([1]; mTNF-α 10000 pg/ml): 7 ± 5%
- effect on trypanocidal activity of TNF-α / tip peptide [1]: hardly influenced

B3: del mTNF-α: tip-deleted mTNF-α; the TPEGAE coding sequence is deleted from the mTNF gene (protein)
chain: LRSSSQNSSDKPVAHVVANHQVEEQLEWLSQRANALLANGMDLKDNQLVVPADGLYLVYSQVLFKGQGCPDYVLLTHTVSRFAISYQEKVNLLSAVKSPCPKDLKPWYEPIYLGGVFQLEKGDQLSAEVNLPKYLDFAESGQVYFGVIAL
- longer half life than wild type TNF-α ([4]; 1 μg/mouse i.p.): at least 2 fold
- concentration TNF-α ([4]; Experiment 1, 0.5 minutes, 1 μg/mouse i.p.): 1000 ng/mL
- concentration TNF-α ([4]; Experiment 1, 5 minutes, 1 μg/mouse i.p.): 990 ng/mL
- concentration TNF-α ([4]; Experiment 1, 10 minutes, 1 μg/mouse i.p.): 640 ng/mL
- concentration TNF-α ([4]; Experiment 1, 15 minutes, 1 μg/mouse i.p.): 550 ng/mL
- concentration TNF-α ([4]; Experiment 1, 30 minutes, 1 μg/mouse i.p.): 580 ng/mL
- concentration TNF-α ([4]; Experiment 1, 60 minutes, 1 μg/mouse i.p.): 450 ng/mL
- concentration TNF-α ([4]; Experiment 1, 120 minutes, 1 μg/mouse i.p.): 250 ng/mL
- concentration TNF-α ([4]; Experiment 1, 180 minutes, 1 μg/mouse i.p.): 100 ng/mL
- concentration TNF-α ([4]; Experiment 1, 240 minutes, 1 μg/mouse i.p.): 10 ng/mL
- concentration TNF-α ([4]; Experiment 2, 0.5 minutes, 1 μg/mouse i.p.): 1000 ng/mL
- concentration TNF-α ([4]; Experiment 2, 15 minutes, 1 μg/mouse i.p.): 600 ng/mL
- concentration TNF-α ([4]; Experiment 2, 30 minutes, 1 μg/mouse i.p.): 500 ng/mL
- concentration TNF-α ([4]; Experiment 2, 60 minutes, 1 μg/mouse i.p.): 500 ng/mL
- concentration TNF-α ([4]; Experiment 2, 120 minutes, 1 μg/mouse i.p.): 330 ng/mL
- concentration TNF-α ([4]; Experiment 2, 180 minutes, 1 μg/mouse i.p.): 240 ng/mL
- concentration TNF-α ([4]; Experiment 2, 240 minutes, 1 μg/mouse i.p.): 20 ng/mL
- in vivo half life compared with wild type ([4]; L929 cytotoxic assay and indirect ELISA): increased half life
- IL6 concentration ([2]; 333 pg/ml, experiment 1): 760 pg/mL
- IL6 concentration ([2]; 333 pg/ml, experiment 2): 850 pg/mL
- IL6 concentration ([2]; 1000 pg/ml, experiment 1): 1180 pg/mL
- IL6 concentration ([2]; 1000 pg/ml, experiment 2): 1600 pg/mL
- IL6 concentration ([2]; 1666 pg/ml, experiment 1): 1240 pg/mL
- IL6 concentration ([2]; 1666 pg/ml, experiment 2): 1900 pg/mL
- IL6 induction compared with wild type ([2]; hMVECb): higher induction of human interleukin-6
- IL8 concentration [3, 6]: 1800 pg/mL
- IL8 concentration [3, 7]: 2450 pg/mL
- IL8 concentration [3, 8]: 1300 pg/mL
- IL8 concentration [3, 9]: 2200 pg/mL
- IL8 concentration [3, 10]: 850 pg/mL
- IL8 concentration [3, 11]: 1250 pg/mL
- IL8 induction compared with wild type ([3]; listed as deletion mutant of mTNFα in the region extending from amino acids 105 to 110): induce consistently less human interleukin 8 (IL8)
- IL8 induction compared with wild type ([3]; listed as tip deletion mutant): about two times more powerful in inducing the inflammatory cytokine IL8
- metastasis enhancing potential compared with wild type TNF ([5]; listed as TNF tip deletion mutant): considerably lower than that of wild type TNF
- metastasis enhancing potential compared with wild type TNF ([5]; listed as mTNFα mutein carrying a deletion of the region extending from amino acids 105 to): considerably lower in vivo metastasis enhancing potential
- general condition of mice ([5]; 17 days): looked significantly better
- mean lung weight ([5]; 17 days, 5 μg/mouse i.p. 5 hours prior to 3LL-R cells): 566 ± 318
